Publication PMC9909335, “Structure-guided design of a potent Clostridioides difficile toxin A inhibitor” (Frontiers in Microbiology, 2023)

Key:
Details in all cases: both partners purified
[1] = target: T1, TcdA-A2 fragment (C-terminal CROPs domain fragment of TcdA, aa 2,556–2,710 of TcdA10463) (Clostridioides difficile; paper: …); test: SEC-MALS
T1 construct: source: recombinant (Greco et al., 2006)

[2] = target: T1, TcdA-A2 fragment (C-terminal CROPs …); test: SPR
[3] = target: T2, Clostridioides difficile toxin A (TcdA), full-length (Clostridioides difficile, strain of …, UniProt P16154); test: ELISA
T2 construct: also called full-length TcdA

B1: VHH A26 (A26.8) (VHH)
VHH: QVKLEESGGGLVQAGGSLRLSCAASERTFSRYPVAWFRQAPGAEREFVAVISSTGTSTYYADSVKGRFTISRDNAKVTVYLQMNNLKREDTAVYFCAVNSQRTRLQDPNEYDYWGQGTQVTVSS
[1]
  stoichiometry N: 1 Ab per Ag (1:1)
[2]
  T1/2 (SPR-calculated half-life, 0.693/kd): 0.6 min
  koff: 0.025 s⁻¹
[3]
  EC50: 14.6 nM

B2: VHH A20 (A20.1) (VHH)
VHH: QVQLVESGGGLAQAGGSLRLSCAASGRTFSMDPMAWFRQPPGKEREFVAAGSSTGRTTYYADSVKGRFTISRDNAKNTVYLQMNSLKPEDTAVYYCAAAPYGANWYRDEYAYWGQGTQVTVSS
[1]
  stoichiometry N: 1 Ab per Ag (1:1)
[2]
  T1/2 (SPR-calculated half-life, 0.693/kd): 1.8 min
  koff: 0.0075 s⁻¹
[3]
  EC50: 0.194 ± 0.013 nM
